Laboratory results published in patent publication US20220306765A1 (SUZHOU TRANSCENTA THERAPEUTICS, published 2022).
Blank lines part the entries; values can stand above or below the binder they belong to.

Legend:
human FcγRIIIa-V176 [1] = biological target: T1, human FcγRIIIa-V176 (human, UniProt P08637 17-208); experiment: cell-based or functional assay
human FcγRIIIa-V176 [2] = biological target: T1, human FcγRIIIa-V176; experiment: ELISA, antibody coated, His-tagged FcγR in solution
Procedure: (§1) After blocking and washing, the serial diluted (5 g/ml˜0.02 μg/ml) FcγRs labeled with His-tag were added and incubated for 1 h. Then anti-His-HRP and TMB were added for detection of FcγR binding at OD450 nm.

human FcγRIIIa-F176 = biological target: T2, human FcγRIIIa-F176 (human, UniProt P08637 17-208); experiment: as above
T2 construct: His-tagged (ELISA); also called hFcγRIIIA (F176)-his
Procedure: as §1

human C1q = human C1q (human, UniProt P02745 23-245; P02746 28-253; P02747 29-245); experiment: ELISA: antibody immobilised, human C1q titrated, anti-C1q-HRP; the concentration axis is that of C1q
Procedure: C1q binding assay was taken following method. Two antibodies were immobilized on the plate. […] Then anti-C1q-HRP and TMB were added for detection at OD450 nm.

Cyno FcγRIII-his = biological target: T3, Cyno FcγRIII-his (cyno, UniProt Q8SPW2 17-208); experiment: ELISA: antibody coated, Cyno FcγRIII-his titrated, anti-His-HRP; the concentration axis is that of the receptor
T3 construct: also called cyno FcγRs
Procedure: as §1

human FcγRI = biological target: T4, human FcγRI (human, UniProt P12314 16-288); experiment: ELISA: antibody coated at 1 ug/ml, hFcγRI-his titrated, anti-His-HRP; the concentration axis is that of the receptor
T4 construct: also called hFcγRI-his
Procedure: as §1

FcγRIV-his = biological target: T5, FcγRIV-his (Mus musculus (Mouse), UniProt A0A0B4J1G0 21-203); experiment: ELISA: antibody coated at 1 ug/ml, Mouse FcγRIV-his titrated, anti-His-HRP; the concentration is that of the receptor
T5 sequence: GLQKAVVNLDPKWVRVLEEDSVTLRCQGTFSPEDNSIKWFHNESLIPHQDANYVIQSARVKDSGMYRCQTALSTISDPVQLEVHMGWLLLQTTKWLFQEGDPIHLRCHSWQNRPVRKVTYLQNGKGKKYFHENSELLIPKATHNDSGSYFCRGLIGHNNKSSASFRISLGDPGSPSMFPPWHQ
Procedure: as §1

human FcγRIIIa-V176 [3] = biological target: T1, human FcγRIIIa-V176; experiment: ELISA: antibody coated at 1 ug/ml, hFcγRIIIA(V176)-his titrated, anti-His-HRP; the concentration is that of the receptor
Procedure: as §1

mouse FcγRI-his = biological target: T6, mouse FcγRI-his (mouse, UniProt P26151 25-297); experiment: ELISA: antibody coated at 1 ug/ml, Mouse FcγRI-his titrated, anti-His-HRP; the concentration axis is that of the receptor
T6 sequence (looked up): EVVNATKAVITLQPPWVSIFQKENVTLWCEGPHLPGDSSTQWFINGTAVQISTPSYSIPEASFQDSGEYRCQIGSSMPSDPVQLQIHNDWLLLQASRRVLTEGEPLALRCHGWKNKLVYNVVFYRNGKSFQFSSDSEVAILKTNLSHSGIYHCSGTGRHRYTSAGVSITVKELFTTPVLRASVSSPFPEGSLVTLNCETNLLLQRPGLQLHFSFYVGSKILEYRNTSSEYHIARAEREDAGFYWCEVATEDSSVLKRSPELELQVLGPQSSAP
Procedure: as §1

mouse FcγRIIB-his = biological target: T7, mouse FcγRIIB-his (mouse, UniProt P08101 30-207, limits assumed); experiment: ELISA: antibody coated at 1 ug/ml, Mouse FcγRIIB-his titrated, anti-His-HRP; the concentration axis is that of the receptor
T7 sequence (looked up): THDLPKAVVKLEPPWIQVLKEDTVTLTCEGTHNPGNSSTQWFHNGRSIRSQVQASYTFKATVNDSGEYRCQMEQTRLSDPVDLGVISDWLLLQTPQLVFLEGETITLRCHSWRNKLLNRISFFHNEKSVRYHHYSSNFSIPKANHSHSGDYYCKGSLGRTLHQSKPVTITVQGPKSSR
Procedure: as §1

[4] = biological target: T8, Human FcRn (FCGRT&B2M) Protein (human, UniProt P55899 24-297; P61769 21-119); experiment: ELISA at pH 6.0: antibody immobilised, biotinylated FcRn titrated, Streptavidin-HRP; the concentration axis is that of FcRn
T8 construct: also called huFcRn-biotin
Procedure: FcRn binding was evaluated by an ELISA method. […] Biotinylated FcRn was serial diluted in a pH6.0 dilution buffer (1 μg/ml˜0.0002 μg/ml) and then added for 1 h incubation. Next, Streptavidin-HRP and TMB were added for detection of binding at OD450 nm.

human CLDN18.2 [5] = biological target: human CLDN18.2 (human); experiment: cell-based or functional assay
[6] = biological target: T9, human CLDN18.2-mRFP1, wild-type (human); experiment: FACS, transfected HEK293, 10 µg/ml antibody;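 note: antibody binding read by flow cytometry with a FITC-labelled anti-human IgG secondary, gated on RFP-positive cells, each mutant signal expressed against wild-type CLDN18.2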
T9 construct: human CLDN18.2 (amino acid 1-261) fused to mRFP1 (amino acid 1-225), transiently expressed in HEK293 cells; also called wild-type human CLDN18.2-mRFP
Procedure: The transfected HEK293-CLDN18.2 or HEK293-CLDN18.1 cell were resuspended in PBS with 2% BSA at density of 10\hat{ }5/well, 100 μl/well. […] Next, cells were washed 3 times by FACS washing buffer and incubated with 100 μl/well goat anti-hIgG (H+L)-FITC (1:200 dilution) at 4° C. for another 30 min. Finally, cells were washed 3 times by FACS washing buffer and analyzed by Flow Cytometry. To analyze binding to CLDN18.2 transfected cells, the RFP positive cells were used for control gating.

human CLDN18.2 [7] = biological target: T10, human CLDN18.2 (human); experiment: FACS, HEK293-CLDN18.2 cells; binds: FACS on overexpressing HEK293-CLDN18.2 cells
T10 construct: also called hCLDN18.2; Claudin-18 splice variant 2

human CLDN18.2 [8] = biological target: T10, human CLDN18.2; experiment: flow cytometry on MKN45-CLDN18.2-high cells; unit taken from the concentration axis
Procedure: (§2) Log-phase HEK293-CLDN18.2 and NUGC4 cells were re-suspended in PBS. After 3× cell wash by using FACS washing buffer (PBS+2% FBS), 100 μl/well diluted hybridoma Abs with a range from 400 nM to 0.002 nM were added into each well for incubation at 4° C. for 30 min. Again, cells were washed 3 times by using FACS washing buffer and then incubated with 100 μl/well goat anti-mIgG-FITC (1:400 dilution) at 4° C. for another 30 min. After a final 3× wash using FACS washing buffer, cells were analyzed by flow Cytometry.

human CLDN18.2 [9] = biological target: T10, human CLDN18.2; experiment: KinExA, NUGC4 cells; binds: Kd on NUGC4 gastric cells (endogenous CLDN18.2), affinity assay, not FACS EC50
human CLDN18.2 [10] = biological target: T10, human CLDN18.2; experiment: flow cytometry on BxPC-3-CLDN18.2 cells (y axis printed as Luminescence); unit taken from the concentration axis
human CLDN18.2 [11] = biological target: T10, human CLDN18.2; experiment: flow cytometry on MIA PaCa-2-CLDN18.2 cells (y axis printed as Luminescence); unit taken from the concentration axis
human CLDN18.2 [12] = biological target: T10, human CLDN18.2; experiment: flow cytometry on SNU-601 cells; unit taken from the concentration axis; the fitted value lies far above the highest concentration tested (about 30 ug/ml); the curve rises only from about 2 ug/ml on, to Mean FITC-A about 35000
human CLDN18.2 [13] = biological target: T10, human CLDN18.2; experiment: flow cytometry on KATOIII cells; unit taken from the concentration axis; the fitted value lies far above the highest concentration tested (about 30 ug/ml); the curve rises only from about 2 ug/ml on, to Mean FITC-A about 43000
human CLDN18.2 [14] = biological target: T10, human CLDN18.2; experiment: flow cytometry on MKN45-CLDN18.2-medium cells; unit taken from the concentration axis; the fitted value lies far above the highest concentration tested (about 60 ug/ml); the curve lies on the isotype control up to about 7 ug/ml and reaches Mean FITC about 4200 at about 60 ug/ml
Procedure: as §2

human CLDN18.2 [15] = biological target: T10, human CLDN18.2; experiment: FACS, HEK293-CLDN18.2 cells
Procedure: as §2

human CLDN18.1 = biological target: T11, human CLDN18.1 (human, UniProt P56856 1-261); experiment: FACS, hybridoma supernatant, HEK293-CLDN18.1 cells
T11 construct: on HEK293-CLDN18.1 cells; also called Claudin-18 splice variant 1; NP_057453.1
Procedure: Log-phase CLDN18.1 expressing HEK293-CLDN18.1 cells were resuspended in PBS at a density of 10\hat{ }5/100 μl per well. After 3× cell wash by using FACS washing buffer (PBS+2% FBS), 100 μl/well hybridoma supernatant was added into each well for incubation at 4° C. for 30 min. Again, cells were washed 3 times by using FACS washing buffer and then incubated with 100 μl/well goat anti-mIgG-FITC (1:400 dilution) at 4° C. for another 30 min. After a final 3× wash using FACS washing buffer, cells were analyzed by flow Cytometry.

human CLDN18.2 [16] = biological target: T10, human CLDN18.2; experiment: flow cytometry on NUGC4 cells, goat anti-mIgG-FITC
Procedure: as §2

T1 sequence (P08637 17-208 F176V limits assumed): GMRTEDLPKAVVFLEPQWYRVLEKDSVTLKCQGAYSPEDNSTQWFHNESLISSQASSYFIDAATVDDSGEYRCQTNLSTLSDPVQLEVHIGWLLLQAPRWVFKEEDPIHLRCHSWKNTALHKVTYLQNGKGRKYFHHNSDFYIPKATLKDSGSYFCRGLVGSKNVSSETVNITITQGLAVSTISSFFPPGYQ
T11 sequence (P56856 whole entry, canonical isoform): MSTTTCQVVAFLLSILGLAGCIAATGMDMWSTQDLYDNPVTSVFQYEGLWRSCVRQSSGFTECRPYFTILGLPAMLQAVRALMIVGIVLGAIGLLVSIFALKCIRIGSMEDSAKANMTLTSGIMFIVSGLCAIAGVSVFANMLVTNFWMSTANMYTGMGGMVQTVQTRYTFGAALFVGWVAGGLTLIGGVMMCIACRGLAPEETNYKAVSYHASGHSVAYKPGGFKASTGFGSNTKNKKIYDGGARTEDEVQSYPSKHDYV
T3 sequence (Q8SPW2 17-208 limits assumed): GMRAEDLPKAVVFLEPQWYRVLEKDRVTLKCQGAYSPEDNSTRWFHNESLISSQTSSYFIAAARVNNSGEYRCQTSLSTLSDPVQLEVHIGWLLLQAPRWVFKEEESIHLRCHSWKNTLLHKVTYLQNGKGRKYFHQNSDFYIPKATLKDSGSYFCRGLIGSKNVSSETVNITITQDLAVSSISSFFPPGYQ
T4 sequence (P12314 16-288 limits assumed): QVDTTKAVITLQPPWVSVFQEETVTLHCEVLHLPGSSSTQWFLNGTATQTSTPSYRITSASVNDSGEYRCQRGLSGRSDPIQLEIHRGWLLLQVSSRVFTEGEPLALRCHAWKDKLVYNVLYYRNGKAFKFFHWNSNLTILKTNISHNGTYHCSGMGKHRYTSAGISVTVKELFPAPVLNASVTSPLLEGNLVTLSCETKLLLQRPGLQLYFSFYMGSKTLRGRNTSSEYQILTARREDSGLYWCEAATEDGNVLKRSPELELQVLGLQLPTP
T2 sequence (P08637 17-208 limits assumed): as the sequence (P08637 17-208 F176V limits assumed) above, with V160F counted along it
Chain of human C1q (P02745 23-245, chain 1 of 3): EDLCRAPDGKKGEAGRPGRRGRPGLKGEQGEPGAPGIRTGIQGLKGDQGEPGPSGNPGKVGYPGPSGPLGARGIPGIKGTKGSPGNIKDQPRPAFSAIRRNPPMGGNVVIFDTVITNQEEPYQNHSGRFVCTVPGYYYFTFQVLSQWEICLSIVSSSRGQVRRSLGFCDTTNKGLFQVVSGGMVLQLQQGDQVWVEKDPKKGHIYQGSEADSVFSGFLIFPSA
Chain of human C1q (P02746 28-253, chain 2 of 3): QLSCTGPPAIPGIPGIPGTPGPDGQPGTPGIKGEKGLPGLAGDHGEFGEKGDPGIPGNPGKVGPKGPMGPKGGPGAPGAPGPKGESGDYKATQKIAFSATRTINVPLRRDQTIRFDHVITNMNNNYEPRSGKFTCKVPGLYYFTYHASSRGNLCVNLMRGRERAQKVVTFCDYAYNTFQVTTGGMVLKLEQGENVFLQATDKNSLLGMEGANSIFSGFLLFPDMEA
Chain of human C1q (P02747 29-245, chain 3 of 3): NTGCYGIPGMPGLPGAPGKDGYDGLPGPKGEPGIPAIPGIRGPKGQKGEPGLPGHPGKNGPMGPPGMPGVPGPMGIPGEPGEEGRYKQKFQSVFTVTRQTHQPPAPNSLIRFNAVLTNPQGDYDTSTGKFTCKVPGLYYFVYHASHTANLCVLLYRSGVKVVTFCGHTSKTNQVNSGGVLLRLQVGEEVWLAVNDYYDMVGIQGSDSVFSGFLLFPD

B3: 26G6 (antibody, V domains shown)
VH: EFQLQQSGPELEKPGASVKISCKTSGYSFTGYNMNWVKQSNGQSLEWIGHIDPYYVTTTYNQKFRGKATLTVDKSSSTAYMQLKSLTSEDSAVYYCARSFYGNAFDYWGQGTTLTVSS
VL: DIVMTQSPSSLTVTAGEKVTMSCKSSQSLFNSGNQKNYLTWYQQKPGQPPKLLIYWASTRESGVPDRFTGSGSGTDFTLTISSVQAEDLAVYYCQNDYSFPFTFGSGTKLEIK
notes: mouse hybridoma antibody; also called hybridoma antibody 26G6
EC50 (human CLDN18.2 [15]): 0.76 µg/mL
binding result (human CLDN18.1): no binding
EC50 (read off the curve) (human CLDN18.2 [16]): ~2 µg/mL

B4: 12E9 (antibody, V domains shown)
VH: EFQLQQSGPELEKPGASVRISCKTSGYSFTGYNMNWVKQSNGESLEWIGNIDPYYGGTRYNQKFKGKATLTVDKSSSTAYMQLKSLTSEDSAVYYCARSYYGNAFDYWGQGTTLTVSS
VL: DIVMTQSPSSLTVTAGEKVTMSCKSSQNLLNNGNQKNYLTWYQQKPGQPPKLLIYWASTRESGVPDRFTGSGSGTDFILTISSVQAEDLAVYYCQNDYSFPFTFGAGTKLELK
notes: mouse hybridoma antibody; also called hybridoma antibody 12E9
EC50 (human CLDN18.2 [15]): 0.52 µg/mL
binding result (human CLDN18.1): no binding
EC50 (read off the curve) (human CLDN18.2 [16]): ~2 µg/mL

Now from value to binder:

ADCC reporter EC50, NUGC4 targets, Jurkat-NFAT-luc-FcγRIIIA-V176 effectors (human FcγRIIIa-V176 [1]): 0.0097 µg/mL
fold increased binding vs 18B10-HaLa wild-type (human FcγRIIIa-V176 [2]): 10 fold
fold increased binding vs 18B10-HaLa wild-type (human FcγRIIIa-F176): 10 fold
binding result (human C1q): binds
binding result (Cyno FcγRIII-his): binds
binding result (human FcγRI): binds
EC50 (read off the curve) (FcγRIV-his): ~0.06 µg/mL
EC50 (read off the curve) (human FcγRIIIa-V176 [3]): ~0.2 µg/mL
binding result (mouse FcγRI-his): binds
binding result (mouse FcγRIIB-his): binds
binding result [4]: binds
B1: 18B10-HaLa-L235V/F243L/R292P/Y300L/P396L (antibody, human IgG1, kappa)
heavy: QVQLVQSGAEVKKPGASVKVSCKASGYTFTGYNMNWVRQAPGQGLEWMGNIDPYYGGTSYNQKFKGRVTMTIDKSTSTVYMELSSLRSEDTAVYYCARMYHGNAFDYWGQGTTVTVSSASTKGPSVFPLAPSSKSTSGGTAALGCLVKDYFPEPVTVSWNSGALTSGVHTFPAVLQSSGLYSLSSVVTVPSSSLGTQTYICNVNHKPSNTKVDKKVEPKSCDKTHTCPPCPAPELVGGPSVFLLPPKPKDTLMISRTPEVTCVVVDVSHEDPEVKFNWYVDGVEVHNAKTKPPEEQYNSTLRVVSVLTVLHQDWLNGKEYKCKVSNKALPAPIEKTISKAKGQPREPQVYTLPPSRDELTKNQVSLTCLVKGFYPSDIAVEWESNGQPENNYKTTPLVLDSDGSFFLYSKLTVDKSRWQQGNVFSCSVMHEALHNHYTQKSLSLSPGK
light: not shown
notes: Fc variant of 18B10-HaLa; also called 18B10-HaLa-VLPYLL; copies: 2 + 2

ADCC EC50 (PBMC effectors, PI staining), NUGC4 cells (human CLDN18.2 [5]): 0.54 µg/mL
binding percentage vs wild-type CLDN18.2 [6]: 100%
EC50 (human CLDN18.2 [7]): 0.42 µg/mL
EC50 (human CLDN18.2 [8]): 4.05 µg/mL
Kd (human CLDN18.2 [9]): 2.58 nM
EC50 (human CLDN18.2 [10]): 2.47 µg/mL
EC50 (human CLDN18.2 [11]): 0.66 µg/mL
EC50 (human CLDN18.2 [12]): 15300 µg/mL
EC50 (human CLDN18.2 [13]): 18000 µg/mL
EC50 (human CLDN18.2 [14]): ~16800 µg/mL
B2: IMAB362 (antibody, human IgG1, V domains shown)
VH: QVQLQQPGAELVRPGASVKLSCKASGYTFTSYWINWVKQRPGQGLEWIGNIYPSDSYTNYNQKFKDKATLTVDKSSSTAYMQLSSPTSEDSAVYYCTRSWRGNSFDYWGQGTTLTVSS
VL: DIVMTQSPSSLTVTAGEKVTMSCKSSQSLLNSGNQKNYLTWYQQKPGQPPKLLIYWASTRESGVPDRFTGSGSGTDFTLTISSVQAEDLAVYYCQNDYSYPFTFGSGTKLEIK
notes: chimeric IgG1 benchmark antibody, expressed according to US2009169547A1; also called IMAB362-analog; IMB362
